From the nanobody polyreactivity screen of Harvey et al. (2022)

Experiment: yeast display, Sf9 membrane polyspecificity reagent, FACS + sequencing; frameworks hold sequencing errors
Outline: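 After 36–48 hours of galactose induction, yeast (Saccharomyces cerevisiae BJ5465) displaying a synthetic nanobody library were stained at 4 °C for 1 hour with 10% biotinylated, detergent-solubilized Sf9 membrane reagent. Streptavidin microbeads enriched the stained cells before FACS sorting into low and high (top ~1%) gates on anti-HA and streptavidin fluorescence. Each clone's polyreactivity label reflects its gate of origin.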

QVQLVESGGGLVQAGGSLRLSSAASGSTFDDYVMGWYRQAPGKERELVAGINSRGTSTDYADSVKGRFTISRDNAKNTVYLQMNSLKPEDTAVYYCNAESPSGRLFDDAYENDYWGQGTQVTVSS
polyreactivity (PSR sort gate): low polyreactivity

QVQLVESGGGLVQAGGSLRLSSAASGSTFEYNAMGWYRQAPGKERELVASSTNYADSVKGRFTISRDNAKNTVYLQMNSLKPEDTAVYYCAREQGVNRNHDYWGQGTQVTVSS
polyreactivity (PSR sort gate): low polyreactivity

QVQLVESGGGLVQAGGSLRLSSAASGSTFLLNAMGWYRQAPGKERELVAAITWSGSRTYYADSVKGRFTISRDNPKYNVYLQMNSLKPEDTAVYDCAAEYRDTRRYSYDYWGQGTQVTVSW
polyreactivity (PSR sort gate): high polyreactivity

QVQLVESGGGLVQAGGSLRLSSAASGSTFQFYAMGWYRQAPGKERELVADITSGDDTNYADSVKGRFTISRDNAKNTVYLQMNSLKPEDTAVYYCAVEYILFYTRVRSYWFDYWGQGTQVTVSS
polyreactivity (PSR sort gate): low polyreactivity

QVQLVESGGGLVQAGGSLRLSSAASGSTFSLNAMGWYRQAPGKERELVASISSGDSTNYADSVKGRFTISLDNAKNTVYLQMNSLKPEDTAVYYCAADGWVLSLARGYYTYDYWGLGTQVTVSS
polyreactivity (PSR sort gate): low polyreactivity

QVQLVESGGGLVQAGGSLRLSSAASGSTFVNYVMGWYRQAPGKERELVAAISRRGTSTSYADSVKGRFTISRDNAKNTVYLQMNSLKPVDTAVYYCITLRQLGRPFYYWGQGTQVTVSS
polyreactivity (PSR sort gate): high polyreactivity

QVQLVESGGGLVQAGGSLRLSSAASGSTFYLNTMGWYRQAPGKEREFVAAISARGGSTYYADSVKGRFTISRDNAKNTVYLQMNSLKPEDTAVYYCAAKFVRFYWNYDYWGQGTQVTVSS
polyreactivity (PSR sort gate): high polyreactivity

QVQLVESGGGLVQAGGSLRLSSAASGSTFYSYAMRWYRQAPGKERELVAAINWDGVSTYYADSVKGRFSISRDNAMNTVYLQMNSLKPEDTAVYYCAADLFSGYRISGTFYYWGQGTQVTVSS
polyreactivity (PSR sort gate): low polyreactivity

QVQLVESGGGLVQAGGSLRLSSAASGSTFYWYAMGWYRQAPGKERELVASITRSGVRTYYADSVKGRFTISRDNAKNTVYLQMNSLKPEDTAVYYCAAERYYFPRSYRYGYWGQGTQVTVSS
polyreactivity (PSR sort gate): low polyreactivity

QVQLVESGGGLVQAGGSLRLSSAASGSTLYRYAMGWYRQAPGKERELVAAISRSGGNTYYADSVKGRFTISRDNAKNTVYLQMNSLKPEDTAVYYCNADSFIRYDYWGQGTQVTVSS
polyreactivity (PSR sort gate): high polyreactivity

QVQLVESGGGLVQAGGSLRLSSAASGYTFTINTMGWYRQAPGKERELVAAITWRGGSTYYADSVKGRFSISRDNAKNTVYLQMNSLKPEDTAVYYCNKDYYITTTTFDYWGQGTQVTVSS
polyreactivity (PSR sort gate): low polyreactivity

QVQLVESGGGLVQAGGSLRLSSAASRITFDQNAMGWYRQAPGKERELVAAITRGSSTNYADSVKGRFTISRDNAKNTVYLQMNSLKPEDTAVYYCNADGYARFRTYYSRDTREYDYWGQGTQVTVSS
polyreactivity (PSR sort gate): low polyreactivity

QVQLVESGGGLVQAGGSLRLSSAASRSIFDYYAMGWYRQAPGKEREFVAAISESSDSTYYADSVKGRFTISRDNAKNTVYLQMNSLKPEDTAVYYCAGQRGGPFPRVVDLYDYWGQGTQVTVSS
polyreactivity (PSR sort gate): low polyreactivity

QVQLVESGGGLVQAGGSLRLSSAAYGRIFAANANGWYRQAPGKERELVAAISSGGSTNYADSVKGRFTISRDNAKNTVYLPMISLKPEDTAVYYCAADASWYAYCYYYWGQGTQVTVSS
polyreactivity (PSR sort gate): low polyreactivity

QVQLVESGGGLVQAGGSLRLSSAAYGSIFDSNAMGWYRQAPGKERELVAAIRYSGGRTYYADSVKGRFTISRDNAKNTVYLQMNILKPEDTAVYYCAARSKVYKVGYNYWGQGTQVTVSS
polyreactivity (PSR sort gate): high polyreactivity

QVQLVESGGGLVQAGGSLRLSSADSGRIFYRYMVWYRHAPGKERELVAAISGRATRTYYADSVKGRFTISRDNAKKTVYLQMNSLKPEDTAVYYCAKRSYHGGDYWGQGTQVTVSS
polyreactivity (PSR sort gate): high polyreactivity

QVQLVESGGGLVQAGGSLRLSSAGSGRIFQPYAMGWYRQAPGKERELVAAITRRAGSTYYADSVKGRFTISRDNAKNTVYLQMNSLKPEDTAVYYWAARGLYWAYEMEDWGQGTQVTVSS
polyreactivity (PSR sort gate): low polyreactivity

QVQLVESGGGLVQAGGSLRLSSAPSGRTFGVYAMGWYRQAPGKERELVAAISATGGSTYYADSVKGRFTISRDNAKNTVYLQMNSLKPEDTAVYYCARGGTTLYWGQGTQVTVSS
polyreactivity (PSR sort gate): high polyreactivity

QVQLVESGGGLVQAGGSLRLSSASSGFTFNKYAMGRYRQAPGKERELVAAISSSGGSTRYADSVKGRFTISRDNAKNTVYLQMNSLNPEDTAVFYCAVYVTRDSGWLLYDYWGQGTQVTVSS
polyreactivity (PSR sort gate): high polyreactivity

QVQLVESGGGLVQAGGSLRLSSASSGRTFYKYAMGWYRQAPGKERELVAAISRRGGSTYYADSVKGRFTISRDNAKNTVYLQMNSLKPEDSAVYYCAAGGSVAFYYWGQGTQVTVSS
polyreactivity (PSR sort gate): high polyreactivity

QVQLVESGGGLVQAGGSLRLSSASSGSTSWIYAMGWYRPEPGKERELVAAISGRDGSTNYADSVKGRFTISRDNAKNTVYLQMIRVKPEDTAVYDCNATGRSFKRYGGDYWGQGTQVTVSS
polyreactivity (PSR sort gate): high polyreactivity

QVQLVESGGGLVQAGGSLRLSSASTGLIFRWYEMGRYRQPPGKETELVAAISRRGGTTNYADSVKGRFTISRDIAKITVYLQMNSLKPEDTAVYYCAADYQSVGVAEYEYWGQGTQVTVSS
polyreactivity (PSR sort gate): high polyreactivity
